Our source for the IC50 values is the Immune Epitope Database (IEDB).

Among the targets are HLA-B*57:01; HLA-A*02:01; HLA-B*07:02; HLA-B*44:03; HLA-B*35:01.
Experiment in all cases: IEDB peptide-MHC binding, purified MHC/competitive/radioactivity; ≥ and ≤ were set here for values at or beyond the usual limits of such assays
What all share (conditions): source organism: Bordetella pertussis

pIC50: −log10 of the molar value. Some results are limits rather than exact numbers.

As a reminder, the pIC50 is −log10 of the IC50, conventionally taken in molar units. RTRGQARSG: the pIC50 with HLA-B*57:01 is 4.93.

For the sequence HFIGYIYEV, in the experiment with HLA-A*02:01, the pIC50 is 7.79.

For the sequence KPDRAARVA, the pIC50 with HLA-B*07:02 is 6.34.

In the case of QAIVVGKDL, in the experiment with HLA-B*44:03, the pIC50 was 4.50.

For LLGSHVARA, in the experiment with HLA-A*02:01, the pIC50 is 5.63.

Turning to ALAAIASAA, in the experiment with HLA-A*02:01, the pIC50 was 4.91.

Take VEDIGGKNY: the pIC50 with HLA-B*44:03 was 4.79.

Turning to HVSKEEQYY, the pIC50 with HLA-B*35:01 is 4.16; with HLA-B*57:01, at most 4.15.

Consider DATLVGAKF, for which the pIC50 with HLA-B*35:01 was 4.22.

Consider RVRALAWLL, for which the values for the pIC50 in the experiment with HLA-B*07:02 and with HLA-B*57:01 were 6.38 and 6.15, respectively.

For the sequence YENKSSTPL, the pIC50 with HLA-B*44:03 was 4.43.

For the sequence YIWGLYQTY, the pIC50 in the experiment with HLA-B*44:03 is 6.33.
